Our source for the maximum percent inhibition values is patent publication US20090004680A1.

For this test, the target named is Mouse synaptosomes (BoNT/A acceptor on a mouse synaptosome preparation).

Turning to “Inactivated BoNT/A (toxoid) (from UniProt P0DPI0 2-1296)”, the maximum percent inhibition is 98%.
